One assay has as its target FcRn (UniProt P55899). Briefly: SPR. On the technique in general: Surface plasmon resonance follows binding to a sensor surface in real time, without labels.
A further assay addresses alpha-HER2 CH1 ADC (UniProt P01857). To be noted: pH 7.3; not stated (pH 7.3).
The target in assay [1] is alpha-HER2 CH1 tag (trastuzumab with aldehyde Tag C) (UniProt P01857). Conditions: pH 7.3; not stated (pH 7.3).
A further assay deals with alpha-HER2 CT ADC (UniProt P01857). To be noted: pH 7.3; not stated (pH 7.3).
Assay [2] has as its target alpha-HER2 CT tag (trastuzumab with aldehyde Tag G) (UniProt P01857). Conditions: pH 7.3; not stated (pH 7.3).
A further assay deals with alpha-HER2 LC ADC (UniProt P01857). Conditions: pH 7.3; not stated (pH 7.3).
Assay [3] concerns the target alpha-HER2 LC tag (trastuzumab with light-chain aldehyde tag). To be noted: pH 7.3; not stated (pH 7.3).
Assay [4] addresses alpha-HER2 untagged (trastuzumab) (UniProt P01857). Conditions: pH 7.3; not stated (pH 7.3).
In assay [5] the target is alpha-HER2-DM1 ADC (in-house T-DM1 analogue) none in sequence; heterogeneous lysine conjugation with SMCC-DM1 (DAR 3.4) (UniProt P01857). To be noted: pH 7.3; not stated (pH 7.3).

In general, Kd refers to the concentration at which binding is half-saturated. High values mean lower affinity, low ones higher affinity.

In the assay with FcRn, “α-HER2 CH1 tag (trastuzumab with the aldehyde tag in the CH1 domain, Tag C) (antibody)” showed a % Bound after 5 s at pH 7.3 of 9.9% and a Kd of 5.2 nM.
Taken in the same sequence, the figures for “α-HER2 LC ADC (LC-tagged trastuzumab conjugated to HIPS-Glu-PEG2-maytansine) (antibody)” were 10.9% and 4.8 nM.
In turn, “α-HER2 untagged (trastuzumab) (antibody)” showed a Kd with FcRn of 5.2 nM.
With “α-HER2 LC tag (trastuzumab with the aldehyde tag in the light chain) (antibody)”, in the assay with FcRn, the % Bound after 5 s at pH 7.3 amounted to 11% and the Kd is 4.7 nM.
In the assay with FcRn, “α-HER2 CT tag (trastuzumab with the aldehyde tag at the heavy chain C-terminus, Tag G) (antibody)” displayed a % Bound after 5 s at pH 7.3 of 9.9% and an equilibrium dissociation constant (Kd) of 5.8 nM.
In the assay with FcRn, “α-HER2 CT ADC (CT-tagged trastuzumab conjugated to HIPS-Glu-PEG2-maytansine) (antibody)” gave a % Bound after 5 s at pH 7.3 of 12% and a Kd of 4.4 nM.
Take Neonatal Fc receptor (FcRn): the % Bound after 5 s in the assay with alpha-HER2 CH1 ADC stood at 9.5 % bound; in assay [1], 9.9 % bound; in the assay with alpha-HER2 CT ADC, 12 % bound; in assay [2], 9.9 % bound; with alpha-HER2 LC ADC, 10.9 % bound; in assay [3] it was 11 % bound. Moreover, the figures for the % Bound after 5 s in assay [4] and in assay [5] were 8.6 % bound and 14.9 % bound, respectively.
For “α-HER2 CH1 ADC (CH1-tagged trastuzumab conjugated to HIPS-Glu-PEG2-maytansine) (antibody)”, the Kd in the assay with FcRn was determined as 4.8 nM.
In the assay with FcRn, “α-HER2-DM1 ADC (trastuzumab conjugated through conventional lysine chemistry to SMCC-DM1) (antibody)” returned a % Bound after 5 s at pH 7.3 of 14.9% and a Kd of 5 nM.

For the origin of these results see paper PMC4215875.
